Experimental data published in US20060024313A1, “Agents that disrupt dimer formation in DPP-IV family of prolyl dipeptidases” (priority 2004, published 2006).
Several values for one entry are separate records, joined by “and”; a condition that tells them apart may be missing. Equal values may be shown once. Marks after values point to notes of the source that are not given here. Peptide text beside a SMILES is read from it.

How the values were obtained:
[1] = Analytical ultracentrifugation (AUC): sedimentation velocity and equilibrium; assay type: physicochemical; conditions: for quaternary structure (monomer/dimer) by AUC: PBS buffer where stated; for Stokes' radius (Rs): sedimentation velocity experiments
Protocol: Buffer was changed using an Amicon device and DPP-IV proteins were allowed to equilibrate for at least four hours or longer as indicated in the text at 25° C. after buffer changes. The sedimentation coefficients (S) of the enzyme were estimated by a Beckman-Coulter XL-A analytical ultracentrifuge with an An60Ti rotor as described (25). Sedimentation velocity analysis was performed at 40,000 rpm at 25° C. with standard double sector aluminum centerpieces. The UV absorption of the cells was scanned every 5 min for 4 hours. Sedimentation equilibrium was performed at 20° C. with six-channel open centerpieces and then centrifuged at 12,000 rpm for 12 hours. The data from both sedimentation velocity and sedimentation experiments were analyzed with the SedFit version 8.7 program to obtain molecular weights and sedimentation coefficients (25). Sednterp version 1.07 program is used to obtain solvent density, viscosity, Stokes' radius (Rs) and anhydrous frictional ratio (f/fo).

[2] = test system: DPP-IV; assay: Dilution experiment (specific activity after two-fold dilutions); assay type: biochemical, human; conditions: 200 nM to 1.6 nM enzyme, 16 hours at 25° C., 10 uM H-Gly-Pro-pNA
Protocol: Enzyme concentrations ranging from 200 nM to 1.6 nM were used in the dilution experiments. The experiments were carried out with consecutive two-fold dilutions in PBS containing 0.1% BSA and 1 mM DTT (dithiothreitol). The solution after dilution was incubated at 25° C. for 16 hours to ensure attainment of dimer-monomer equilibrium. The reaction was initiated by adding the substrate H-Gly-Pro-pNA at a final concentration of 10 uM for both wild type DPP-IV and H750A proteins. The initial rate of the reaction was recorded and converted to specific activity.

[3] = test system: DPP-IV; assay: Kinetic constant measurements with chromogenic substrate H-Gly-Pro-pNA; assay type: biochemical, human; conditions: for Km / kcat: substrate H-Gly-Pro-pNA
Protocol: To measure the kinetic parameters, the chromogenic substrate H-Gly-Pro-pNA was utilized to initiate the reaction, which was monitored at OD 405 nm as a function of time (21). […] The initial rate was measured with less than 10% substrate depletion for the first 10 to 300 seconds. The steady-state parameters, kcat and Km, were determined from initial velocity measurements at 0.5 to 5 Km of the substrate concentrations. Lineweaver-Burk plots were analyzed using non-linear regression of the Michaelis-Menten equation. Correlation coefficients better than 0.99 were obtained throughout.

[4] = Size exclusion chromatography (gel filtration, Superdex 200); assay type: physicochemical; conditions: gel filtration experiments; PBS buffer
Protocol: Chemical crosslinking in intact cells was conducted as described (24). Size exclusion chromatography was conducted at 4° C. Purified proteins (0.5 ml at a concentration of 5 uM) were applied to a Superdex 200 10/30 column (10×300-310 mm) pre-equilibrated with PBS. The sample was eluted with the same buffer at 0.3 ml/min and 0.25 ml fractions were collected. The Superdex 200 10/30 column was calibrated with the Stokes Radii of ferritin (6.1 nm), catalase (5.22 nm), aldolase (4.81 nm), albumin (3.55 nm), ovalbumin (3.05 nm) and chymotrypsinogen A (2.09 nm) from Amersham-Pharmacia.

[5] = target: H750A monomers (Homo sapiens, UniProt P27487, H750A); assay: AUC of H750A in the presence of inhibitor or dipeptide product; conditions: PBS buffer, FIG. 14
Sequence of H750A monomers (P27487 39-766 H750A): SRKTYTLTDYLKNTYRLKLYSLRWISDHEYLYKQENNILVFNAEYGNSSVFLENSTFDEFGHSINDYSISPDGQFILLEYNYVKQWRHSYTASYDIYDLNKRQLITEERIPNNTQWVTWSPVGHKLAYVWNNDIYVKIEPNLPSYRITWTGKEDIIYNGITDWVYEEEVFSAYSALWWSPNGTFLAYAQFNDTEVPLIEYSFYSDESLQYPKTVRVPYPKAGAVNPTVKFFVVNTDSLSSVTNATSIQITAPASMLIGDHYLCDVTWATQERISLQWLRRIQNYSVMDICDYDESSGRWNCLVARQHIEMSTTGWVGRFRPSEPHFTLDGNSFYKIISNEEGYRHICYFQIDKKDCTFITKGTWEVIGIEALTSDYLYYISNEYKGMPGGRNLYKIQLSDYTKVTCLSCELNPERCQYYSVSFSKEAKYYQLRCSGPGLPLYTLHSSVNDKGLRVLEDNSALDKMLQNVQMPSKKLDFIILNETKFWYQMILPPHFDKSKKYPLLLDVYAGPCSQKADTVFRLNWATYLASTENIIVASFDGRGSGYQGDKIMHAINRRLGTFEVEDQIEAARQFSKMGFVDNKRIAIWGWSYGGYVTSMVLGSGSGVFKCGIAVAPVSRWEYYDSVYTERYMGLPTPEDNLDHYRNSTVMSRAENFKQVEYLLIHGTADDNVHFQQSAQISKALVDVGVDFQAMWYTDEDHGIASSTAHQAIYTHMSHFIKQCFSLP
Protocol: AUC was performed for H750A in the presence of the proline-mimetic inhibitor and Gly-Pro dipeptide product, since the substrate Gly-Pro-pNA is cleaved by the enzyme.

Molecule | Anhydrous frictional ratio (f/fo) ([1]; PBS buffer) | Sedimentation coefficient (s20, w) ([1]; PBS buffer) | quaternary structure (monomer/dimer) by AUC [1] | Stokes' radius (Rs) ([1]; PBS buffer) | specific activity on dilution [2] | Km ([3]; PBS buffer) | kcat ([3]; PBS buffer) | Stokes' radius (Rs) [4] | Sedimentation coefficient (s20, w) ([1]; High salt buffer) | quaternary structure (subunit composition) by sedimentation velocity ([1]; High salt buffer (0.5 M sodium sulfate)) | Stokes' radius (Rs) ([1]; High salt buffer) | Km ([3]; High salt buffer) | kcat ([3]; High salt buffer) | AUC analysis or catalytic activities in low salt buffer ([3]; low salt buffer compared to PBS buffer (data not shown)) | dimer formation of H750A monomers in the presence of the substance [5]
sDPP-IV: endogenous DPP-IV purified from human semen | 1.4 | 9.1 S | homodimeric | 5.8^b nm | no decrease in specific activity | 96 µM | 73 s⁻¹ | 5.9 nm and 5.9^a nm | – | – | – | – | – | – | –
rDPP-IV: recombinant wild-type human DPP-IV (aa 39 to 766) from baculoviral infected insect cells | 1.4 | 8.4 S | non-spherical dimer | 5.0^b nm | no decrease in specific activity | 90 µM | 87 s⁻¹ | 5.6 nm and 5.6^a nm | 5.0 S and 4.9 S | dimer | 4.9^b nm | 181 µM | 57 s⁻¹ | no differences | –
NCC(=O)N1CCC[C@H]1C(=O)O [G-P-OH, Gly-Pro] (H-Gly-Pro-OH) | – | – | – | – | – | – | – | – | – | – | – | – | – | – | did not associate to form dimers
